Data on 30 sequences can be found in the nanobody polyreactivity screen of Harvey et al. (2022).

This data set can be described thus: yeast display, Sf9 membrane polyspecificity reagent, FACS + sequencing; frameworks hold sequencing errors. The method in brief: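 Sorting gates, low and high (top ~1%), were placed on anti-HA fluorescence to track expression and on streptavidin fluorescence to track reagent binding. A clone's polyreactivity label is taken from the gate it came out of. The reagent was 10% biotinylated, detergent-solubilized Sf9 membrane, applied for 1 hour at 4 °C to galactose-induced yeast display cells.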
Take “QVQLQESGGGLVQAGGSLRLSCAASGSIFDGFNMGWYRQAPGKERECVAAISYGASTYYADSVKGRFTGSRDNAKNSVYLQMNSLKPEDTAVYYCAVYDELYHVLVYWGRGTQVTVSS”: the “polyreactivity (PSR sort gate)” value was “low polyreactivity”.

On to “QVQLQESGGGLVQAGGSLRLSCAASGSIFHLHIMSWYRHAPGKERESVAAISYGTSTYYADSVKCRFTICRDNAKNTVYLQINIPKPDDTAVYYCAALFLVSKHHHYWGEGTQVTVSS”, for which the “polyreactivity (PSR sort gate)” value is “low polyreactivity”.

In the case of “QVQLQESGGGLVQAGGSLRLSCAASGSIFLFYTMGCYRPAPVKEREFVAGITLGTTTYNADSVKGRFTISRDNVKNTVYLQMNSLNPVDSAVYYCAVAVGHYTEFWYWGQGTQVTMSS”, the “polyreactivity (PSR sort gate)” value is “high polyreactivity”.

“QVQLQESGGGLVQAGGSLRLSCAASGSIFQYGYMGWYRQAPGKEREFVAGIGGGTSNYADSVKGRFTISRDNAKNTVYLQMNSLKPEDTAVYYCNTDAGDYYGENYWGQGTQVTVSS”: the “polyreactivity (PSR sort gate)” value is on record as “low polyreactivity”.

As for “QVQLQESGGGLVQAGGSLRLSCAASGSIFTQATMGWYRQAPGKERELVAAINFGSSTYYADSVKGRFTISRDNAKSTVYLQMNSLKPEDTAVYYCAVRALWYDFHDYWGQGTQVTVSS”, the “polyreactivity (PSR sort gate)” value was “high polyreactivity”.

As for “QVQLQESGGGLVQAGGSLRLSCAASGSISHYIFMGWYRQAPGKEREFVAGIGYGGTTNYADSVKGRFTISRDNAKNTVYLQMNSLKPEDTAVYYCAAVSIYWGQGTQVTVSS”, the “polyreactivity (PSR sort gate)” value was “low polyreactivity”.

In the case of “QVQLQESGGGLVQAGGSLRLSCAASGSISHYIFRGWYRQAPGKEPEFVAGIGYGGTTNYADSVKGRFTISRDNAKNTVYLQMNSLKPEDTAMYYCAAREATEFYLYYWGQGTQVTVIS”, the “polyreactivity (PSR sort gate)” value is given as “low polyreactivity”.

Regarding “QVQLQESGGGLVQAGGSLRLSCAASGSISNSAAMAWYRQAPGKERELVVSIGHGASSNYADSVKGRFTISRDNAKNTVYLQMNSLKPEDTAVYYCAAYPGFLDGFFYWGQSTQVTVSS”, the “polyreactivity (PSR sort gate)” value is given as “high polyreactivity”.

Regarding “QVQLQESGGGLVQAGGSLRLSCAASGSITRYYDMGWYRQAPGKEREFVAGISGGAITYYADSLKGRFTISRDNAKNTVYLQMNSLKPEDTAVYYCAADTGVYQYHSYWGQGTQVTVSS”, the “polyreactivity (PSR sort gate)” value is on record as “low polyreactivity”.

For “QVQLQESGGGLVQAGGSLRLSCAASGSNSILQSMGWYRQAPGKERELVAGINWGATTYYADSVKGRLTTSRDYAKNSVYLQMNSLKPEDTAVYFCAVPTYYTYPLLYWGQGTQVTVSS”, the “polyreactivity (PSR sort gate)” value is “low polyreactivity”.

For “QVQLQESGGGLVQAGGSLRLSCAASGSNSILQSMGWYRQAPRKERELVAGINWGATTYYADSVKGRLTTSRDYAINTVYLQMNSLKPEATAVYYCAVPTYYTYPLLYWGQGTQVTVSS”, the “polyreactivity (PSR sort gate)” value is given as “low polyreactivity”.

On to “QVQLQESGGGLVQAGGSLRLSCAASGTIFRFRYMGWHRQAPVKERELVAGINGGTTTYYADSVIGRFTISRDNAKNTVYLQMNSLKADDTAVYNCAAGASRLTYYDYWGQGTQVTVSS”, for which the “polyreactivity (PSR sort gate)” value is on record as “low polyreactivity”.

Turning to “QVQLQESGGGLVQAGGSLRLSCAASGTISDRAGMGWYRQAPAKNAIVATIDRGTNTNYADSVKGRFTISRVNAKNTVYLQMNSLKPEDTAVYNCAADGRYYIYLDYWGQGTQVTVSS”, the “polyreactivity (PSR sort gate)” value is reported as “low polyreactivity”.

Consider “QVQLQESGGGLVQAGGSLRLSCAASGTISPLPAMGWYRQAPGKEREFVAGIDTGAITNYADSVKGRFTISRDNAKNTVYLQMNSLKPEDTAVYYCAVFPAAYDYDERYYTYWGQGTQVTVSS”, for which the “polyreactivity (PSR sort gate)” value is “low polyreactivity”.

Turning to “QVQLQESGGGLVQAGGSLRLSCAASGTISQEDCMGWYRQATGKQREFVAAIGLGSNTNYADSLKGRFTISRDNAKNTVYLLMNSLKPEDTAVYYCAVSVWQYSDHVYRGQGTQVTVSS”, the “polyreactivity (PSR sort gate)” value is listed as “low polyreactivity”.

For “QVQLQESGGGLVQAGGSLRLSCAASGTISQEDWMGWYRQAPGKEREFVAAIGLGSNTNYADSLKGRFTISRDNAKKTVYLQMNSLKPEDTAVYYCAVSVWQYSDHVYRGQGTQVTVSS”, the “polyreactivity (PSR sort gate)” value is recorded as “low polyreactivity”.

“QVQLQESGGGLVQAGGSLRLSCAASGTISYAPHMGWYRQAPGKERELVAGITIGGTTYYADSVKGRFTISRDNANNTVYLQMNSLSPGDTAVYYCAAHSEQYTPFYYWGQGTQVTVSS”: the “polyreactivity (PSR sort gate)” value is reported as “low polyreactivity”.

Turning to “QVQLQESGGGLVQAGGSLRLSCAASGTISYPRTMGWYRQAPGKEREFVAGIGVGGTTYYADSVKGRFTISRDNAKYTVYLQMNILKPEDAAVYYCAVAAYYDKYYVYWGQGTQVTVSF”, the “polyreactivity (PSR sort gate)” value is given as “low polyreactivity”.

In the case of “QVQLQESGGGLVQAGGSLRLSCAASGTMSDRPGMGWYRQAPAKNAIVATIDRGTNTNYADSVKGRFTISRDNAKNTVSLQMNSLKPEDSAVYNCAAVGRYYFSLDYWGPGTQVTVSS”, the “polyreactivity (PSR sort gate)” value is on record as “low polyreactivity”.

Turning to “QVQLQESGGGLVQAGGSLRLSCAASGYISHAVEMCWYRQAPGKEHELVASISNGGSTNYADSVKGRFTISRDNAKNTVYLQMNSLKSEDTAVYYCAGWTGQVDIHYYWGQGTQVTVSS”, the “polyreactivity (PSR sort gate)” value was “low polyreactivity”.

As to “QVQLQESGGGLVQAGGSLRLSCAASGYISQSSVMGWYRQAPGKEREFVASISYGATTYYADSVKGRFTISRDNAKNTVYLQTNSPKPEDTAVYYCAVLVKRGFSHRYWGQGTQVTVSS”, the “polyreactivity (PSR sort gate)” value is recorded as “high polyreactivity”.

For “QVQLQESGGGLVQAGGSLRLSCAASGYISTFSAEMGWYRQAPGKERELVASIAPGCTTSYADSVKGRFTISRDNAKNTVYLQMNSLKPEDTAVYYCAVDYTLPASFGYWGQGTQVTVSS”, the “polyreactivity (PSR sort gate)” value is given as “high polyreactivity”.

On to “QVQLQESGGGLVQAGGSLRLSCAASGYISTFSSEMGWYRQAPGKERELVASIAPGCTTSYADSVKGRFTISRDNAKNTVYLQMNSLKPEDTAVYYCAVGNGLSRYVYGDYDYWGQGTQVTVSS”, for which the “polyreactivity (PSR sort gate)” value was “high polyreactivity”.

Turning to “QVQLQESGGGLVQAGGSLRLSCAASRNISGSSDLGWYHQAPGKEREFVASITSGGTTYYADSVKGRFTISRDNAKNTVYLQMNSLKPEDTAVYYCAVGDPADAEFGYWGQGTQVTVSS”, the “polyreactivity (PSR sort gate)” value is on record as “low polyreactivity”.

As to “QVQLQESGGGLVQAGGSLRLSCAGTGNIIDADFMRWYRQAPGKERELAASSTEGGSTNYAESVKSRFTISRDNANNTVYLQMNSLKPEVTAVYYCAAIAYPYIPTYFDYDSDYFYWGQGTQVTVSR”, the “polyreactivity (PSR sort gate)” value is on record as “high polyreactivity”.

Turning to “QVQLQESGGGLVQAGGSLRLSCAPSGSISRYYDMGWYRQAPGKEREYVAGISGGAITYYADSVKGRFTISRDNAKNTVYLQMNSLKPEDTAVYYCAADTCVYQYHSYWGQGTQVTVSS”, the “polyreactivity (PSR sort gate)” value is given as “low polyreactivity”.

On to “QVQLQESGGGLVQAGGSLRLSCTASGTIYSTSAMGWYRQAPGKDREFVADIASGASTNYADSVKGRFTISRDNAKNTVYLQMNSLKPEDTAVYYCAAKRIRRRYKYDYWGQGTQVTVSS”, for which the “polyreactivity (PSR sort gate)” value is recorded as “high polyreactivity”.

Regarding “QVQLQESGGGLVQAGGSLRLSGAASGSISSRDAMGWYRQAPGKEREFVATIASGTTTYYADSVKGSFTISRDNAENTVYLQTNSLKPEDTAVYYCAAPTIQIYPFYYWGQGTQVTVSS”, the “polyreactivity (PSR sort gate)” value is recorded as “high polyreactivity”.

Consider “QVQLQESGGGLVQAGGSLRLSSAASGSISSRDAMGWYRQAPGKEREFVATIASGTTTYYADSVKGSFTISRDNAENTVYLQTNSLKPEDTAVYYCAAPTIQIYPFYYWGQGTQVTVSS”, for which the “polyreactivity (PSR sort gate)” value is reported as “high polyreactivity”.

Regarding “QVQLQESGGGLVQAGGSLRLSSAASGTISVHATMGWYRQAPGKERELVAGITDGANTYYADSVKGRFTISRDNSKNTEYLQMNSLKPEDTAVYYCAAYYGTVVHFTYWGQGTQVTVSS”, the “polyreactivity (PSR sort gate)” value is given as “low polyreactivity”.
